From patent US20100022454A1 (Novo Nordisk, published 2010)

T1: hPRLR on stably transfected BaF/3 cells (human, UniProt P16471 25-622)
T1 sequence (looked up): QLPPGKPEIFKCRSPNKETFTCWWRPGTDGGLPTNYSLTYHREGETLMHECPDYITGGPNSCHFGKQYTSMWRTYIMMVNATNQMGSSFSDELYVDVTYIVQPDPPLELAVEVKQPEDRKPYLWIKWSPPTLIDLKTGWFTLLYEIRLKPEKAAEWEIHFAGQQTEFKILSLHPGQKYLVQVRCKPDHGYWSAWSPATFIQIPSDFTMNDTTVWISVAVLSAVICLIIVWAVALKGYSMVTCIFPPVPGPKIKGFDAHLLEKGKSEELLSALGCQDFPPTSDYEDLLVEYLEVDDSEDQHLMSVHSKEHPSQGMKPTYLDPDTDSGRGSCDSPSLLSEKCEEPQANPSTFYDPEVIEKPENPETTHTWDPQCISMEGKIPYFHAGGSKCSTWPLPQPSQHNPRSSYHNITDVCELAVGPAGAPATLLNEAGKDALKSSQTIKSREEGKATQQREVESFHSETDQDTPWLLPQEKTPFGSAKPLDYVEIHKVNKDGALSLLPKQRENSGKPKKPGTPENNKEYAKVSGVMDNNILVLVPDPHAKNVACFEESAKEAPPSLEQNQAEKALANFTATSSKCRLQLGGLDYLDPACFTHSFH


Assays:
[1] = target: prolactin receptor (PRLR) on T47D cells; assay: cell-based or functional assay
[2] = target: T1, hPRLR on stably transfected BaF/3 cells; assay: cell-based or functional assay

| Apparent IC50 (nM) at 20 nM PRL; inhibition of PRL induced STAT3 phosphorylation, phospho-STAT3 ELISA on T47D cells [1] | EC50 (nM) of PRL in the presence of 1 µM PRL S61A G129R, BaF3 proliferation assay (AlamarBlue), n = 9 [2] | EC50 (nM), BaF3 proliferation assay (AlamarBlue), n = 31 [2] | Binder |
| --- | --- | --- | --- |
| 69 nM | – | – | PRL G129R (ligand) LPICPGGAARCQVTLRDLFDRAVVLSHYIHNLSSEMFSEFDKRYTHGRGFITKAINSCHTSSLATPEDKEQAQQMNQKDFLSLIVSILRSWNEPLYHLVTEVRGMQEAPEAILSKAVEIEEQTKRLLERMELIVSQVHPETKENEIYPVWSGLPSLQMADEESRLSAYYNLLHCLRRDSHKIDNYLKLLKCRIIHNNNC |
| – | 40 nM | 0.15 nM | human prolactin (PRL), wildtype (ligand) LPICPGGAARCQVTLRDLFDRAVVLSHYIHNLSSEMFSEFDKRYTHGRGFITKAINSCHTSSLATPEDKEQAQQMNQKDFLSLIVSILRSWNEPLYHLVTEVRGMQEAPEAILSKAVEIEEQTKRLLEGMELIVSQVHPETKENEIYPVWSGLPSLQMADEESRLSAYYNLLHCLRRDSHKIDNYLKLLKCRIIHNNNC |
| 18 nM | – | – | PRL S61A G129R (ligand) LPICPGGAARCQVTLRDLFDRAVVLSHYIHNLSSEMFSEFDKRYTHGRGFITKAINSCHTASLATPEDKEQAQQMNQKDFLSLIVSILRSWNEPLYHLVTEVRGMQEAPEAILSKAVEIEEQTKRLLERMELIVSQVHPETKENEIYPVWSGLPSLQMADEESRLSAYYNLLHCLRRDSHKIDNYLKLLKCRIIHNNNC |
